Read-outs that look alike come from different tables or passages of the source.

The results in this text go back to US20260069679A1.

Assay [1] deals with SS-L2-Aferr. Description: BLI, 1:1 fit.
The target of assay [2] is SS[change]. Description: BLI, 1:1 fit.
Assay [3] addresses MERS SS antigen (MERS-CoV EMC/2012) (UniProt K9N5Q8).
The target is the same in assay [4]. The source holds these as a separate data set.
For assay [5] the target is unchanged. In words: BLI, 1:1 fit.
In assay [6] the target is MERS [change]\u0394RBD antigen (MERS-CoV EMC/2012). In words: BLI, 1:1 fit.

In assay [1], CC40.8 (antibody) had a Kd of 312 pM and a kon of 229000 M⁻¹ s⁻¹. In assay [2], the Kd came out at 1690 pM and the kon is 205000 M⁻¹ s⁻¹.

As to G4 (antibody), the maximum binding in assay [3] was 0.43 nm. Further, the Kd stood at 550 pM in assay [4]; 8.1 pM in assay [5]; 6.71 pM in assay [6]; 2.38 pM in assay [1]; 2.79 pM in assay [2]. The kon in assay [5] was 52200 M⁻¹ s⁻¹; in assay [6], 67400 M⁻¹ s⁻¹; in assay [1] it was 205000 M⁻¹ s⁻¹; in assay [2] it was 175000 M⁻¹ s⁻¹.
